Results reported in US20220177587A1, “METHODS AND USES OF VARIANT CD80 FUSION PROTEINS AND RELATED CONSTRUCTS” (Alpine Immune Sciences, Inc., priority 2018, published 2022).
Numbering of substitutions follows the chain as printed. Numbers in names are those of the source.

Assays:
human pan T cells = experiment: Anti-CD3 coimmobilization assay, IFN-gamma; assay type: cell-based; details: Table E32; variant ECD-Fc coimmobilized with anti-CD3; culture supernatant
How it was run: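 Plates coated overnight with 1 nM or 4 nM OKT3 anti-CD3 plus 1–80 nM rCD80.Fc variants, then washed. Purified human pan T cells or BC3 T cell clone (100,000/well) cultured 3 days in Ex-Vivo 15; supernatant IFN-gamma measured by ELISA.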

allogeneic CD4+ T cells = experiment: Mixed Lymphocyte Reaction (MLR), IFN-gamma; assay type: cell-based, human; details: Table E32; variant ECD-Fc in MLR assay; culture supernatant
Experimental: Soluble rCD80.Fc bioactivity was tested in a human Mixed Lymphocyte Reaction (MLR). Human primary dendritic cells (DC) were generated by culturing monocytes isolated from PBMC (BenTech Bio, USA) in vitro for 7 days with 500U/ml rIL-4 (R&D Systems, USA) and 250 U/ml rGM-CSF (R&D Systems, USA) in Ex-Vivo 15 media (Lonza, Switzerland). 10,000 matured DC and 100,000 purified allogeneic CD4+ T cells (BenTech Bio, USA) were co-cultured with variant CD80 Fc fusion proteins and controls in 96 well round bottom plates in 200 μl final volume of Ex-Vivo 15 media. On day 5, IFN-gamma secretion in culture supernatants was analyzed using the Human IFN-gamma Duoset ELISA kit (R&D Systems, USA). Optical density was measured by VMax ELISA Microplate Reader (Molecular Devices, USA) and quantitated against titrated rIFN-gamma standard included in the IFN-gamma Duo-set kit (R&D Systems, USA).

CD28 [1] = molecular target: T1, CD28 (Homo sapiens, UniProt P10747); experiment: Jurkat/IL2 + CHO/OKT3 +/- PD-L1 reporter assay: PD-L1-dependent CD28 costimulation; assay type: cell-based; set-up: host or cells: Jurkat cells expressing an IL-2-luciferase reporter; details: luciferase signal
How it was run: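 Jurkat reporter cells (100,000/well) preincubated 15 min at room temperature with test protein, then cocultured 5 h at 37 °C with CHO aAPCs bearing anti-CD3 scFv (OKT3) with or without PD-L1. Luciferase luminescence (RLU) read after lysis-substrate addition.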

CD28 [2] = molecular target: T1, CD28; experiment: Jurkat/IL2 reporter assay: blockade of CD28 costimulation (plate-bound anti-CD3/CD86-Fc); assay type: cell-based; set-up: host or cells: Jurkat cells expressing an IL-2-luciferase reporter; details: Table E5; protein diluted to 40 nM before mixing with cells; 5 hours
Experimental: The day before the assay, the assay plate was prepared. […] The plate was incubated overnight at 4° C. to allow the antibody and CD86-Fc protein to adhere to the surface of the plate. The next day, the wells of the assay plate were washed twice with 150 μL PBS prior to the assay.
Jurkat effector cells expressing IL-2-luciferase reporter were counted and resuspended in assay buffer to a concentration of 2×10^6 cells/mL. 60 μL of the Jurkat cell suspension were then added to the wells containing the CD80-Fc fusion molecules or controls. The cells and CD80 proteins were incubated at room temperature for 15 minutes and then 100 μL of the cell/CD80 protein mixture were transferred/well of the prepared anti-CD3/CD86-Fc assay plate.
The assay plate was briefly spun down (10 seconds at 1200 RPM) and incubated at 37° C. for 5 hours. After the 5 hour incubation, the plate was removed and equilibrated to room temperature for 15 minutes. 100 μL of Bio-Glo (Promega) were added/well of the assay plate, which was then placed on an orbital shaker for 10 minutes. Luminescence was measured with a 1 second per well integration time using a BioTek Cytation 3 luminometer.

B1: T28S/L70Q/A91G/E95K/I118V/T120S/I126V/T130A/K169E (protein, UniProt P33681 35-288, looked up, variant T28S L70Q A91G E95K I118V T120S I126V T130A K169E)
T-lymphocyte activation …: VIHVTKEVKEVATLSCGHNVSVEELAQSRIYWQKEKKMVLTMMSGDMNIWPEYKNRTIFDITNNLSIVIQALRPSDEGTYECVVLKYEKDGFKRKHLAEVTLSVKADFPTPSISDFEVPSSNIRRVICSASGGFPEPHLSWLENGEELNAINTTVSQDPETELYAVSSELDFNMTTNHSFMCLIKYGHLRVNQTFNWNTTKQEHFPDNLLPSWAITLISVNGIFVICCLTYCFAPRCRERRRNERLRRESVRPV
Coimmobilization with anti CD3 IFN-gamma (human pan T cells): 120 pg/mL | MLR IFN-gamma levels (allogeneic CD4+ T cells): 834 pg/mL

B2: L70Q/A91G/N144D (protein)
chain: VIHVTKEVKEVATLSCGHNVSVEELAQTRIYWQKEKKMVLTMMSGDMNIWPEYKNRTIFDITNNLSIVIQALRPSDEGTYECVVLKYEKDGFKREHLAEVTLSVKADFPTPSISDFEIPTSNIRRIICSTSGGFPEPHLSWLEDGEELNAINTTVSQDPETELYAVSSKLDFNMTTNHSFMCLIKYGHLRVNQTFNWNTTKQEHFPDN
modifications: CD80 v122 ECD
Coimmobilization with anti CD3 IFN-gamma (human pan T cells): 93 pg/mL | MLR IFN-gamma levels (allogeneic CD4+ T cells): 716 pg/mL

B3: N63S/L70Q/A91G/S114T/I118V/T120S/T130A (protein)
chain: B2 chain with N63S, S114T, I118V, T120S, T130A, D144N, H188D
modifications: CD80 v133 ECD
Coimmobilization with anti CD3 IFN-gamma (human pan T cells): 116 pg/mL | MLR IFN-gamma levels (allogeneic CD4+ T cells): 705 pg/mL

B4: V4M/L70Q/A91G/I118V/T120S/T130A/K169E (protein)
chain: B2 chain with V4M, I118V, T120S, T130A, D144N, K169E
modifications: CD80 v124 ECD
Coimmobilization with anti CD3 IFN-gamma (human pan T cells): 139 pg/mL | MLR IFN-gamma levels (allogeneic CD4+ T cells): 991 pg/mL

B5: L70Q/A91G/I118V/T120S/T130A/K169E (protein)
chain: B2 chain with I118V, T120S, T130A, D144N, K169E
modifications: CD80 v125 ECD
Coimmobilization with anti CD3 IFN-gamma (human pan T cells): 104 pg/mL | MLR IFN-gamma levels (allogeneic CD4+ T cells): 741 pg/mL

B6: A91G/S103P (protein)
chain: B2 chain with Q70L, S103P, D144N
Coimmobilization with anti CD3 IFN-gamma (human pan T cells): 124 pg/mL | MLR IFN-gamma levels (allogeneic CD4+ T cells): 670 pg/mL

B7: A91G/T120S/I118V/T130A (protein)
chain: B2 chain with Q70L, I118V, T120S, T130A, D144N
Coimmobilization with anti CD3 IFN-gamma (human pan T cells): 276 pg/mL | MLR IFN-gamma levels (allogeneic CD4+ T cells): 714 pg/mL

B8: S44P/L70Q/A91G/T130A (protein)
chain: B2 chain with S44P, T130A, D144N
Coimmobilization with anti CD3 IFN-gamma (human pan T cells): 142 pg/mL | MLR IFN-gamma levels (allogeneic CD4+ T cells): 854 pg/mL

B9: L70Q/A91G/I118A/T120S/T130A/K169E (protein)
chain: B2 chain with I118A, T120S, T130A, D144N, K169E
modifications: CD80 v123 ECD
Coimmobilization with anti CD3 IFN-gamma (human pan T cells): 86 pg/mL | MLR IFN-gamma levels (allogeneic CD4+ T cells): 741 pg/mL

B10: K37E/F595/L70Q/A91G/T120S/T130A (protein)
chain: B2 chain with K37E, F59S, I118V, T120S, T130A, D144N, K185E
Coimmobilization with anti CD3 IFN-gamma (human pan T cells): 109 pg/mL | MLR IFN-gamma levels (allogeneic CD4+ T cells): 863 pg/mL

B11: L70Q/A91G/E117G/I118V/T120S/T130A (protein)
chain: B2 chain with E117G, I118V, T120S, T130A, D144N
modifications: CD80 v128 ECD
Coimmobilization with anti CD3 IFN-gamma (human pan T cells): 98 pg/mL | MLR IFN-gamma levels (allogeneic CD4+ T cells): 736 pg/mL

B12: K36E/I67T/L70Q/A91G/I118V/T1205/T130A/N152T (protein)
chain: B2 chain with K36E, I67T, I118V, T120S, T130A, D144N, N152T
Coimmobilization with anti CD3 IFN-gamma (human pan T cells): 53 pg/mL | MLR IFN-gamma levels (allogeneic CD4+ T cells): 852 pg/mL

B13: L70R/A91G/I118V/T120S/T130A/T199S (protein)
chain: B2 chain with Q70R, I118V, T120S, T130A, D144N, T199S
modifications: CD80 v130 ECD
Coimmobilization with anti CD3 IFN-gamma (human pan T cells): 105 pg/mL | MLR IFN-gamma levels (allogeneic CD4+ T cells): 702 pg/mL

B14: L70Q/A91G/T130A (protein)
chain: B2 chain with T130A, D144N
modifications: CD80 v2 ECD
Coimmobilization with anti CD3 IFN-gamma (human pan T cells): 99 pg/mL | MLR IFN-gamma levels (allogeneic CD4+ T cells): 752 pg/mL

B15: L70Q/Y87N/A91G/T130A (protein)
chain: B2 chain with Y87N, T130A, D144N
modifications: CD80 v12 ECD
Coimmobilization with anti CD3 IFN-gamma (human pan T cells): 136 pg/mL | MLR IFN-gamma levels (allogeneic CD4+ T cells): 769 pg/mL

B16: L70Q/E81A/A91G/I118V/T120S/I127T/T130A (protein)
chain: B2 chain with E81A, I118V, T120S, I127T, T130A, D144N
modifications: CD80 v131 ECD
Coimmobilization with anti CD3 IFN-gamma (human pan T cells): 98 pg/mL | MLR IFN-gamma levels (allogeneic CD4+ T cells): 772 pg/mL

B17: V20L/L70Q/A91S/I118V/T120S/T130A (protein)
chain: B2 chain with V20L, I118V, T120S, T130A, D144N
modifications: CD80 v127 ECD
Coimmobilization with anti CD3 IFN-gamma (human pan T cells): 195 pg/mL | MLR IFN-gamma levels (allogeneic CD4+ T cells): 710 pg/mL

B18: E52G/L70Q/A91G/D107N/I118V/T1205/T130A/K169E (protein)
chain: B2 chain with E52G, D107N, I118V, T120S, T130A, D144N, K169E
Coimmobilization with anti CD3 IFN-gamma (human pan T cells): 94 pg/mL | MLR IFN-gamma levels (allogeneic CD4+ T cells): 874 pg/mL

B19: E35D/M47I: variant CD80 IgV-Fc, IgV SEQ ID NO:177 (protein)
chain: VIHVTKEVKEVATLSCGHNVSVEELAQTRIYWQKDKKMVLTMMSGDINIWPEYKNRTIFDITNNLSIVILALRPSDEGTYECVVLKYEKDAFKREHLAEVTLSVKAD
PD-L1-Dependent CD28 Costimulation, +PD-L1, 0.6 nM (CD28 [1]; CHO/OKT3/PD-L1 aAPC, 0.6 nM): 1047 | PD-L1-Dependent CD28 Costimulation, +PD-L1, 50 nM (CD28 [1]; CHO/OKT3/PD-L1 aAPC, 50 nM): 3778 | PD-L1-Dependent CD28 Costimulation, No PD-L1, 50 nM (CD28 [1]; CHO/OKT3 aAPC, no PD-L1, 50 nM): 894 | PD-L1-Dependent CD28 Costimulation, No PD-L1, […] (CD28 [1]; CHO/OKT3 aAPC, no PD-L1, […]): 637 | Average Relative Luminescence Units (CD28 [2]): 1444 Relative Luminescence Units

B20: Y31H/E35D/T41S/V68L/K93R/R94W: variant CD80 IgV-Fc, IgV SEQ ID NO:223 (protein)
chain: B19 chain with Y31H, T41S, I47M, V68L, K93R, R94W
Average Relative Luminescence Units (CD28 [2]): 3678 Relative Luminescence Units

B21: I30T/L70R: variant CD80 IgV-Fc, IgV SEQ ID NO:154 (protein)
chain: B19 chain with I30T, D35E, I47M, L70R
Average Relative Luminescence Units (CD28 [2]): 3236 Relative Luminescence Units

B22: D46E/A71D: variant CD80 IgV-Fc, IgV SEQ ID NO:222 (protein)
chain: B19 chain with D35E, D46E, I47M, A71D
Average Relative Luminescence Units (CD28 [2]): 490 Relative Luminescence Units
